Test results taken from US20230365662A1.
Where a chain is given by its changes, count along the chain named. Names and notes keep the numbering of the source. Values joined by “and” are separate entries in the source; they are usually repeats but may differ in a detail not shown here. Equal values may be shown once.

B1: KB001 mouse Fab FASEBA VH K64I (Fab, V domains shown)
VH: EVQLKQSGPGLVAPSQSLSITCTVSGFSLSIYSVHWVRQPPGKGLEWLGMIWGGGSSDYNSALISRLSISKDNSKSQVFLKMNSLQTDDTAMYYCARNGNFYAMDYWGQGTSVTVSS
VL: QIVLTQSPAIMSASLGERVTMTCTASSSVSSSFLHWYQQKPGSSPQLWIYSTSNLASGVPARFSGSGSGTSYSLTISSMEAEDAATYYCHQYHHSPYIYTFGGGTKLEIK
B2: KB001 mouse Fab FASEBA VH K64H (Fab, V domains shown)
VH: B1 VH with I64H
VL: B1 VL
B3: KB001 mouse Fab FASEBA VH L63Y (Fab, V domains shown)
VH: B1 VH with L63Y, I64K
VL: B1 VL
B4: KB001 mouse Fab FASEBA VH A62M (Fab, V domains shown)
VH: B1 VH with A62M, I64K
VL: B1 VL
B5: KB001 mouse Fab FASEBA VH A62H (Fab, V domains shown)
VH: B1 VH with A62H, I64K
VL: B1 VL
B6: KB001 mouse Fab FASEBA VH A62N (Fab, V domains shown)
VH: B1 VH with A62N, I64K
VL: B1 VL
B7: KB001 mouse Fab FASEBA VH A62I (Fab, V domains shown)
VH: B1 VH with A62I, I64K
VL: B1 VL
B8: KB001 mouse Fab FASEBA VH K64G (Fab, V domains shown)
VH: B1 VH with I64G
VL: B1 VL
B9: KB001 mouse Fab FASEBA VH L63H (Fab, V domains shown)
VH: B1 VH with L63H, I64K
VL: B1 VL
B10: KB001 mouse Fab FASEBA VH K64M (Fab, V domains shown)
VH: B1 VH with I64M
VL: B1 VL
B11: KB001 mouse Fab FASEBA VH S61F (Fab, V domains shown)
VH: B1 VH with S61F, I64K
VL: B1 VL
B12: KB001 mouse Fab FASEBA VH S61G (Fab, V domains shown)
VH: B1 VH with S61G, I64K
VL: B1 VL
B13: KB001 mouse Fab FASEBA VH S61L (Fab, V domains shown)
VH: B1 VH with S61L, I64K
VL: B1 VL
B14: KB001 mouse Fab FASEBA VH K64S (Fab, V domains shown)
VH: B1 VH with I64S
VL: B1 VL
B15: KB001 mouse Fab FASEBA VH A62D (Fab, V domains shown)
VH: B1 VH with A62D, I64K
VL: B1 VL
B16: KB001 mouse Fab FASEBA VH A62R (Fab, V domains shown)
VH: B1 VH with A62R, I64K
VL: B1 VL
B17: KB001 mouse Fab FASEBA VH S61M (Fab, V domains shown)
VH: B1 VH with S61M, I64K
VL: B1 VL
B18: KB001 mouse Fab FASEBA VH S61H (Fab, V domains shown)
VH: B1 VH with S61H, I64K
VL: B1 VL
B19: KB001 mouse Fab FASEBA VH A62G (Fab, V domains shown)
VH: B1 VH with A62G, I64K
VL: B1 VL
B20: KB001 mouse Fab FASEBA VH K64V (Fab, V domains shown)
VH: B1 VH with I64V
VL: B1 VL
B21: KB001 mouse Fab FASEBA VH S61C (Fab, V domains shown)
VH: B1 VH with S61C, I64K
VL: B1 VL
B22: KB001 mouse Fab FASEBA VH A62F (Fab, V domains shown)
VH: B1 VH with A62F, I64K
VL: B1 VL
B23: KB001 mouse Fab FASEBA VH S61K (Fab, V domains shown)
VH: B1 VH with S61K, I64K
VL: B1 VL
B24: KB001 mouse Fab FASEBA VH K64Y (Fab, V domains shown)
VH: B1 VH with I64Y
VL: B1 VL
B25: KB001 mouse Fab FASEBA VH A62V (Fab, V domains shown)
VH: B1 VH with A62V, I64K
VL: B1 VL
B26: KB001 mouse Fab FASEBA VH A62E (Fab, V domains shown)
VH: B1 VH with A62E, I64K
VL: B1 VL
B27: KB001 mouse Fab FASEBA VH L63V (Fab, V domains shown)
VH: B1 VH with L63V, I64K
VL: B1 VL
B28: KB001 mouse Fab FASEBA VH L63M (Fab, V domains shown)
VH: B1 VH with L63M, I64K
VL: B1 VL
B29: KB001 mouse Fab FASEBA VH L63F (Fab, V domains shown)
VH: B1 VH with L63F, I64K
VL: B1 VL
B30: KB001 mouse Fab FASEBA VH A62L (Fab, V domains shown)
VH: B1 VH with A62L, I64K
VL: B1 VL
B31: KB001 mouse Fab FASEBA VH A62Q (Fab, V domains shown)
VH: B1 VH with A62Q, I64K
VL: B1 VL
B32: parental mouse (KB001) Fab FASEBA, VL variant L55R/S51G (Fab, V domains shown)
VH: B1 VH with I64K
VL: B1 VL with S51G, L55R
B33: parental mouse (KB001) Fab FASEBA, VL variant A56Q (Fab, V domains shown)
VH: B1 VH with I64K
VL: B1 VL with A56Q
B34: parental mouse (KB001) Fab FASEBA, VL variant L55H (Fab, V domains shown)
VH: B1 VH with I64K
VL: B1 VL with L55H
B35: parental mouse (KB001) Fab FASEBA, VL variant A56V (Fab, V domains shown)
VH: B1 VH with I64K
VL: B1 VL with A56V
B36: parental mouse (KB001) Fab FASEBA, VL variant A56R (Fab, V domains shown)
VH: B1 VH with I64K
VL: B1 VL with A56R
B37: parental mouse (KB001) Fab FASEBA, VL variant A56N (Fab, V domains shown)
VH: B1 VH with I64K
VL: B1 VL with A56N
B38: parental mouse (KB001) Fab FASEBA, VL variant L55Q (Fab, V domains shown)
VH: B1 VH with I64K
VL: B1 VL with L55Q
B39: parental mouse (KB001) Fab FASEBA, VL variant A56T (Fab, V domains shown)
VH: B1 VH with I64K
VL: B1 VL with A56T
B40: parental mouse (KB001) Fab FASEBA, VL variant A56S (Fab, V domains shown)
VH: B1 VH with I64K
VL: B1 VL with A56S
B41: parental mouse (KB001) Fab FASEBA, VL variant L55S (Fab, V domains shown)
VH: B1 VH with I64K
VL: B1 VL with L55S

Each binder was assayed against HRgpA-6H (Porphyromonas gingivalis) (UniProt P28784) (assay: ELISA on coated HRgpA-6H).
Sequence of UniProt P28784 (P28784 228-991 limits assumed): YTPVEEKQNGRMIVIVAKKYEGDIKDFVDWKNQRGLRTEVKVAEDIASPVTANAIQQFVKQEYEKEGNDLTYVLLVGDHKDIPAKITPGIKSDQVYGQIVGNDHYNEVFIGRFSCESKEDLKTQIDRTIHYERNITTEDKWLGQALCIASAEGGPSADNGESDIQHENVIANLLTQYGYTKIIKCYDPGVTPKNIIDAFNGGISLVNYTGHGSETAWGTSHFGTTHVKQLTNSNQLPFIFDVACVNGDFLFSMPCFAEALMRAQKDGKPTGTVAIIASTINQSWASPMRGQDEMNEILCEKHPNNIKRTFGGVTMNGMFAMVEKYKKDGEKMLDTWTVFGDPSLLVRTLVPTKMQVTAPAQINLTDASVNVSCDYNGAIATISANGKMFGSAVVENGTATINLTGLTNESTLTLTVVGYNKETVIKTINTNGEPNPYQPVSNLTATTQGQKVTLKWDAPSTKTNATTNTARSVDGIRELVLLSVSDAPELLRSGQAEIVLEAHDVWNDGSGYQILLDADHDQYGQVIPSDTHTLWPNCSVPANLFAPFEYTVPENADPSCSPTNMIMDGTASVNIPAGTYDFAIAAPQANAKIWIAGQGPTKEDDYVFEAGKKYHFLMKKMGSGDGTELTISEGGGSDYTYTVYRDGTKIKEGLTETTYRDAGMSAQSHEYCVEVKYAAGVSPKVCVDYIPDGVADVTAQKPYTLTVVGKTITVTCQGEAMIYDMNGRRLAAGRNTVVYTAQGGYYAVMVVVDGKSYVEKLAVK

Binder	OD450nm	Ratio OD(Variant)/OD(WT)
B1	0.743 and 0.756 and 0.715	0.898 and 0.914 and 0.865
B2	0.752	0.909
B3	0.836 and 0.846 and 0.801	0.957 and 0.968 and 0.916
B4	0.77 and 0.735	0.881 and 0.841
B5	0.819 and 0.834 and 0.844	0.937 and 0.954 and 0.966
B6	0.721 and 0.799	0.825 and 0.914
B7	0.702 and 0.808	0.803 and 0.924
B8	0.806	0.975
B9	0.818 and 0.843 and 0.822	0.936 and 0.965 and 0.941
B10	0.799 and 0.757 and 0.78	0.966 and 0.915 and 0.943
B11	0.432 and 0.473	0.875 and 0.958
B12	0.46 and 0.476	0.932 and 0.965
B13	0.448	0.908
B14	0.808	0.977
B15	0.853 and 0.851	0.976 and 0.974
B16	0.733 and 0.847 and 0.809	0.839 and 0.969 and 0.926

Binder	OD450nm	Ratio OD(Variant)/OD(WT)
B17	0.493 and 0.479	0.999 and 0.971
B18	0.469	0.95
B19	0.813 and 0.785	0.93 and 0.898
B20	0.715 and 0.714	0.865 and 0.863
B21	0.431	0.873
B22	0.843 and 0.733	0.965 and 0.839
B23	0.49	0.993
B24	0.763	0.923
B25	0.742 and 0.757	0.849 and 0.866
B26	0.854	0.977
B27	0.784 and 0.77 and 0.778	0.897 and 0.881 and 0.89
B28	0.8	0.915
B29	0.743	0.85
B30	0.812	0.929
B31	0.737 and 0.869	0.843 and 0.994

What follows are binders tested against HRgpA-6H (Porphyromonas gingivalis) (UniProt P28784) (assay: ELISA, Fab FASEBA supernatant on coated HRgpA-6H).

Binder	OD450nm	Ratio OD(Variant)/OD(WT)
B32	0.748 OD450nm	0.955 ratio to WT
B33	0.705 OD450nm	0.865 ratio to WT
B34	0.64 OD450nm	0.817 ratio to WT
B35	0.794 OD450nm and 0.795 OD450nm	0.974 ratio to WT and 0.975 ratio to WT
B36	0.728 OD450nm and 0.734 OD450nm and 0.751 OD450nm	0.893 ratio to WT and 0.9 ratio to WT and 0.921 ratio to WT
B37	0.712 OD450nm and 0.775 OD450nm	0.873 ratio to WT and 0.95 ratio to WT
B38	0.662 OD450nm	0.845 ratio to WT
B39	0.731 OD450nm	0.896 ratio to WT
B40	0.772 OD450nm and 0.751 OD450nm and 0.774 OD450nm	0.947 ratio to WT and 0.921 ratio to WT and 0.949 ratio to WT
B41	0.655 OD450nm	0.836 ratio to WT
